Data as given in paper PMC7841161, “APE1 distinguishes DNA substrates in exonucleolytic cleavage by induced space-filling”.

How the values were obtained:
mAPE1 full-length [1] = target: T1, mAPE1 full-length (mouse, UniProt P28352 1-317); experiment: EMSA; 50 mM EDTA; similar to blunt; EMSA: 50 mM EDTA, 20 mM Tris-HCl pH 7.0, 120 mM NaCl, on ice 10 min + 10 min, FAM-labeled substrates, TBE native gel; details: protein: recombinant, label: FAM
[2] = target: mAPE1 in blunt-ended crystal (mouse, UniProt P28352 40-317); experiment: X-ray crystallography; product complex; EMSA: 50 mM EDTA, 20 mM Tris-HCl pH 7.0, 120 mM NaCl, on ice 10 min + 10 min, FAM-labeled substrates, TBE native gel; details: protein: recombinant; chain copies: 2; 2 copies of one strand, 1-nt 5' overhangs; central A-A from self-pairing
Chain of mAPE1 in blunt-ended crystal (P28352 40-317): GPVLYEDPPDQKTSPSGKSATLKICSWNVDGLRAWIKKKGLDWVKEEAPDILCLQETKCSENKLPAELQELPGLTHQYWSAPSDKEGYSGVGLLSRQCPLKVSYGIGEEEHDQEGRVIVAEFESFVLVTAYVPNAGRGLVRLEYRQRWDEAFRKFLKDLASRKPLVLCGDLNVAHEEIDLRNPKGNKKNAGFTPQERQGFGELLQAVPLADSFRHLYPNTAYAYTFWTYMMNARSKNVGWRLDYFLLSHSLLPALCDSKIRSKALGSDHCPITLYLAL

mAPE1 full-length [3] = target: T1, mAPE1 full-length; experiment: EMSA; 50 mM EDTA; complex visible at 1 uM mAPE1; EMSA: 50 mM EDTA, 20 mM Tris-HCl pH 7.0, 120 mM NaCl, on ice 10 min + 10 min, FAM-labeled substrates, TBE native gel; details: protein: recombinant, label: FAM
[4] = target: mAPE1 in recessed crystal (mouse, UniProt P28352 31-317); experiment: X-ray crystallography; product complex; EMSA: 50 mM EDTA, 20 mM Tris-HCl pH 7.0, 120 mM NaCl, on ice 10 min + 10 min, FAM-labeled substrates, TBE native gel; details: protein: recombinant; 2 copies of one strand, 2-nt 5' overhangs; central A-A from self-pairing
Chain of mAPE1 in recessed crystal (P28352 31-317): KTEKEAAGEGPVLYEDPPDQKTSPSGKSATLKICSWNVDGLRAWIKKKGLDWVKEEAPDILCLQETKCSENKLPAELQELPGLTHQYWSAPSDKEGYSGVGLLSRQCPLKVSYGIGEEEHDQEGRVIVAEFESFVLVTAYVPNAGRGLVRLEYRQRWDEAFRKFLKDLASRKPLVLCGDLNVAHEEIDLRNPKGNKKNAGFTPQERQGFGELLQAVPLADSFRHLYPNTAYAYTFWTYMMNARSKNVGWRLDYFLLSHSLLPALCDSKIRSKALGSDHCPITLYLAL

mAPE1 full-length [5] = target: T1, mAPE1 full-length; experiment: EMSA; 50 mM EDTA; weak low-MW complex seen; EMSA: 50 mM EDTA, 20 mM Tris-HCl pH 7.0, 120 mM NaCl, on ice 10 min + 10 min, FAM-labeled substrates, TBE native gel; details: protein: recombinant; label: FAM; 3 strands, nick between strands 1 and 2
mAPE1 full-length [6] = target: T1, mAPE1 full-length; experiment: EMSA; 50 mM EDTA; extra low-MW complex at 0.5 uM, higher affinity than ends; EMSA: 50 mM EDTA, 20 mM Tris-HCl pH 7.0, 120 mM NaCl, on ice 10 min + 10 min, FAM-labeled substrates, TBE native gel; details: protein: recombinant; label: FAM; 3 strands, 1-nt gap between strands 1 and 2
mAPE1 full-length [7] = target: T1, mAPE1 full-length; experiment: EMSA; 50 mM EDTA; mostly complexed at 5 uM, stronger than blunt; EMSA: 50 mM EDTA, 20 mM Tris-HCl pH 7.0, 120 mM NaCl, on ice 10 min + 10 min, FAM-labeled substrates, TBE native gel; details: protein: recombinant; label: FAM; 5' overhang 20 nt on strand 2

T1 sequence (P28352 whole entry): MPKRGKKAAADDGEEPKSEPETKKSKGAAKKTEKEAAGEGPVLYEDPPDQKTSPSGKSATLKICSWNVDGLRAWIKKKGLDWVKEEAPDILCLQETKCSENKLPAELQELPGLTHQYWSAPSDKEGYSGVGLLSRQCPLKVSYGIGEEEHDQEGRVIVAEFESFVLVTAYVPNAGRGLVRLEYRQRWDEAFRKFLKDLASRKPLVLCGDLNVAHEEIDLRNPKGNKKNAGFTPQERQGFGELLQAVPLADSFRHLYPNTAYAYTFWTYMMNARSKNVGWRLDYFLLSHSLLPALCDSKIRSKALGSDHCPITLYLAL

B1: dsDNA 20 mer 1 nt mismatch (dsDNA)
DNA 1: ACTGGACAAATACTCCGAGG
DNA 2: ACTCGGAGTATTTGTCCAGT
binding result (mAPE1 full-length [1]; 1 nt mismatch at 3' end of strand 1): binds

B2: blunt-ended dsDNA product (crystal) (dsDNA)
DNA 1: CGTAATAC
DNA 2: CGTAATAC
binding result [2]: binds

B3: recessed dsDNA 5 nt 5' overhang (dsDNA)
DNA 1: ACTGGACAAATACTCCGAGG
DNA 2: ATCACCCTCGGAGTATTTGTCCAGT
binding result (mAPE1 full-length [3]; 5' overhang 5 nt on strand 2): binds

B4: recessed dsDNA product (crystal) (dsDNA)
DNA 1: GCGTAATAC
DNA 2: GCGTAATAC
binding result [4]: binds

B5: dsDNA 20 mer 2 nt mismatch (dsDNA)
DNA 1: ACTGGACAAATACTCCGAGG
DNA 2: AATCGGAGTATTTGTCCAGT
binding result (mAPE1 full-length [1]; 2 nt mismatch at 3' end of strand 1): binds

B6: blunt-ended dsDNA 20 bp (dsDNA)
DNA 1: ACTGGACAAATACTCCGAGG
DNA 2: CCTCGGAGTATTTGTCCAGT
binding result (mAPE1 full-length [3]; blunt): binds

B7: nicked dsDNA 40 mer 5'-OH (dsDNA)
DNA 1: ACTGGACAAATACTCCGAGG
DNA 2: GTGATTAGTGAAGCGTGCTC
DNA 3: GAGCACGCTTCACTAATCACCCTCGGAGTATTTGTCCAGT
modifications: 5'-OH at nick
binding result (mAPE1 full-length [5]): binds

B8: 1-nt gapped dsDNA 40 mer, matched (dsDNA)
DNA 1: ACTGGACAAATACTCCGAGG
DNA 2: TGATTAGTGAAGCGTGCTC
DNA 3: GAGCACGCTTCACTAATCACCCTCGGAGTATTTGTCCAGT
modifications: 5'-OH or 5'-phosphate at gap margin (not stated which for EMSA)
binding result (mAPE1 full-length [6]): binds

B9: recessed dsDNA 20 nt 5' overhang (dsDNA)
DNA 1: ACTGGACAAATACTCCGAGG
DNA 2: GAGCACGCTTCACTAATCACCCTCGGAGTATTTGTCCAGT
binding result (mAPE1 full-length [7]): binds
